According to paper PMC5477170, “Biochemical characterization of an enantioselective esterase from Brevundimonas sp. LY-2” (Microbial Cell Factories, 2017):

How the values were obtained:
[1] = test system: T1, CCCC(=O)Oc1ccc([N+](=O)[O-])cc1; assay: p-nitrophenyl ester hydrolysis, Lineweaver-Burk; type: biochemical, Brevundimonas sp. LY-2; details: pH and temperature not stated for this assay
T1 construct: signal peptide (residues 1-28) removed; C-terminal His-tag, pET-29a(+); E. coli BL21(DE3); full ORF 306 aa; predicted 29,451 Da, SDS-PAGE ~30 kDa; gel filtration 62 kDa, dimer; N-terminus from primer (M)ATAEP
Source text: (§1) p-nitrophenyl ester hydrolysis, Lineweaver-Burk on LacH

[2] = test system: T2, CCCCCCCC(=O)Oc1ccc([N+](=O)[O-])cc1; assay: p-nitrophenyl ester hydrolysis, Lineweaver-Burk; type: biochemical, Brevundimonas sp. LY-2; details: pH and temperature not stated for this assay
T2 construct: signal peptide (residues 1-28) removed; C-terminal His-tag, pET-29a(+); E. coli BL21(DE3); full ORF 306 aa; predicted 29,451 Da, SDS-PAGE ~30 kDa; gel filtration 62 kDa, dimer; N-terminus from primer (M)ATAEP
Source text: as §1

[3] = test system: T3, CC(=O)Oc1ccc([N+](=O)[O-])cc1; assay: p-nitrophenyl ester hydrolysis, Lineweaver-Burk; type: biochemical, Brevundimonas sp. LY-2; details: pH and temperature not stated for this assay
T3 construct: signal peptide (residues 1-28) removed; C-terminal His-tag, pET-29a(+); E. coli BL21(DE3); full ORF 306 aa; predicted 29,451 Da, SDS-PAGE ~30 kDa; gel filtration 62 kDa, dimer; N-terminus from primer (M)ATAEP
Source text: as §1

[4] = test system: T4, CCCCCC(=O)Oc1ccc([N+](=O)[O-])cc1; assay: p-nitrophenyl ester hydrolysis, Lineweaver-Burk; type: biochemical, Brevundimonas sp. LY-2; details: pH and temperature not stated for this assay
T4 construct: signal peptide (residues 1-28) removed; C-terminal His-tag, pET-29a(+); E. coli BL21(DE3); full ORF 306 aa; predicted 29,451 Da, SDS-PAGE ~30 kDa; gel filtration 62 kDa, dimer; N-terminus from primer (M)ATAEP
Source text: as §1

[5] = test system: CCOC(=O)C(C)OC(=O)c1cc(Oc2ccc(C(F)(F)F)cc2Cl)ccc1[N+](=O)[O-]; assay: purified protein; details: 50 mM sodium phosphate, pH 7.0, 40 °C

LacH (Brevundimonas sp. LY-2) showed a Km [1] of 185 ± 9 µM, a kcat [1] of 7.48 ± 0.45 s⁻¹ and a kcat/Km [1] of 40400 M⁻¹ s⁻¹. For the same substance, the Km [2] was 335 ± 16 µM, the kcat [2] was 0.767 ± 0.06 s⁻¹ and the kcat/Km [2] was 2290 M⁻¹ s⁻¹. The Km [3] was 147 ± 8 µM, the kcat [3] was 8.39 ± 0.28 s⁻¹ and the kcat/Km [3] was 50100 M⁻¹ s⁻¹. It also gave a Km [4] of 208 ± 12 µM, a kcat [4] of 3.47 ± 0.13 s⁻¹ and a kcat/Km [4] of 16700 M⁻¹ s⁻¹. It also gave a Km [5] of 67 ± 2 µM, a kcat [5] of 0.87 ± 0.09 s⁻¹ and a kcat/Km [5] of 12900 M⁻¹ s⁻¹.
